PMC7829508, “Binding of Campylobacter jejuni FliW Adjacent to the CsrA RNA-Binding Pockets Modulates CsrA Regulatory Activity” (Frontiers in Microbiology, 2020)

B1: CsrA-WT-His6 (natural protein, C. jejuni 81-176, UniProt P0DPD4 1-75, looked up)
chain: MLILSRKENESIIIGEGIEIKVVQTGKGYAKIGIEAPKSLMILRKELVQQVKDENLHSVVQNDIKLDDLSKKLIK
notes: CsrA of Campylobacter jejuni, 75 amino acids; csrA cloned into pET-20b(+) (pET-20b-CsrA-His6, Fields et al., 2016); also called CsrA-His6; source: purified as described previously (El Abbar et al., 2019); not shown: His6, C-terminal, kept
B2: CsrA-V51A-His6 (natural protein, C. jejuni 81-176, UniProt P0DPD4 1-75, looked up)
chain: MLILSRKENESIIIGEGIEIKVVQTGKGYAKIGIEAPKSLMILRKELVQQAKDENLHSVVQNDIKLDDLSKKLIK
notes: CsrA of Campylobacter jejuni, 75 amino acids, with V51A; point mutation cloned into pET20b (El Abbar et al., 2019); source: purified as described previously (El Abbar et al., 2019); not shown: His6, C-terminal, kept

Key:
[1] = molecular target: FliW-His6 (C. jejuni) (UniProt Q0P9H9); experiment: SPR; BIAcore T100; FliW-His6 amine-coupled to CM5 chip; CsrA-His6 injected at 0-500 nM, 30 μL/min, 180 s association, 600 s dissociation; 20 mM phosphate buffer, 0.05% Tween 20, pH 7.4; bivalent analyte model, constant of the first binding event (KD1)
[2] = molecular target: T1, FliW-His6 (C. jejuni, UniProt Q0P9H9 1-129); experiment: as above; settings: both partners purified
T1 construct: FliW of Campylobacter jejuni, fliW cloned into pET-20b(+) (pET-20b-FliW-His6, Li et al., 2018); also called C. jejuni FliW
T1 sequence (looked up): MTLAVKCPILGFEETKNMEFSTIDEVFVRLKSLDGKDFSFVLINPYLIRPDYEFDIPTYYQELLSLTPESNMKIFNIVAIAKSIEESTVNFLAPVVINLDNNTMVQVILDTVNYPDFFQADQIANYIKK

Molecule | KD of the first ligand binding site (KD1, bivalent analyte model) [1] | KD of the first ligand binding site (KD1, bivalent analyte model) [2]
CsrA-N55A-His6 (from UniProt P0DPD4 1-75) (natural protein) | 93 nM | –
B1 | – | 9 nM
B2 | – | 52 nM
